The labels stand for the following.
B1: linear peptide 3 [modified: 5(6)-carboxyfluorescein on the N-terminus; 5(6)-carboxyfluorescein on the N-terminus] / B-RCAL (BÜHLMANN recombinant calprotectin; His6-linker-S100A9-linker-S100A8) [human] (parent complex)
chain 1: RSPESVAFPMFQSHWYSG
chain 2: MTCKMSQLERNIETIINTFHQYSVKLGHPDTLNQGEFKELVRKDLQNFLKKENKNEKVIEHIMEDLDTNADKQLSFEEFIMLMARLTWASHEKMHEGDEGPGHHHKPGLGEGTPLEVLFQGPMLTELEKALNSIIDVYHKYSLIKGNFHAVYRDDLKKLLETECPQYIRKKGADVWFKELDINTDGAVNFQEFLILVIKMGVAAHKKSHEESHKE

This assay covers variants of B1. In words: SPR; peptide injected at 500 nM; single measurement; calprotectin immobilized; read off a plot. (SPR reads the build-up and loss of mass on a sensor chip optically.)
Regarding chain 1 RSPASVAFPMFQSHWYSG [chain 1 E4A], the response is about 130 RU.

The record behind these values is paper PMC10192418 (2023).
